Measurements published in patent publication KR20120084755A.

target: RSV A2 바이러스의 F 단백질 (Respiratory Syncytial Virus (RSV), strain A2) (UniProt P03420); experiment: cell-based or functional assay
Sequence of UniProt P03420 (P03420 26-574): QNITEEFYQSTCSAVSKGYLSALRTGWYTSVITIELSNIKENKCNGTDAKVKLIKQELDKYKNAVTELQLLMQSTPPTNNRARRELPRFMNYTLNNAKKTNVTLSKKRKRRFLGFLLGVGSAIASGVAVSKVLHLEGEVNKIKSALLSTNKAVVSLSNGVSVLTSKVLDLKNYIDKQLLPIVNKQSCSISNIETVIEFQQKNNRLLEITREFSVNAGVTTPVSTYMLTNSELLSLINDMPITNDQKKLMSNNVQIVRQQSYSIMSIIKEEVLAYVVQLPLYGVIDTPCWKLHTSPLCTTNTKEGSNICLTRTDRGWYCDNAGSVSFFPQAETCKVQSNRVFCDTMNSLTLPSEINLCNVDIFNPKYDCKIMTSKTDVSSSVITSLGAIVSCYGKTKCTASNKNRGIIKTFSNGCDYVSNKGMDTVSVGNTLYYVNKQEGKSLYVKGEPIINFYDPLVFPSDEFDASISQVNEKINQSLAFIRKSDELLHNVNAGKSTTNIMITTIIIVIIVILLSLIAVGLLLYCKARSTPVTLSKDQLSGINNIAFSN

Row | Substance | IC50, RSV A2 neutralisation on HEp2 cells (standard TCID50 culture assay) [ng/㎖]
1 | AM16 (antibody) | 78.7
2 | AM23 (antibody) | 4.18
3 | D25 (antibody) | 1.28
4 | 팔리비주마브(Palivizumab) (antibody) | 152
